This is an account of results in US20200270346A1 (Merck Sharp & Dohme, published 2020).

Where two headings read alike, the source gives them in different places.

Assay [1] has as its target T1, human TIGIT expressed on cells (human, UniProt Q495A1 25-244).
T1 sequence: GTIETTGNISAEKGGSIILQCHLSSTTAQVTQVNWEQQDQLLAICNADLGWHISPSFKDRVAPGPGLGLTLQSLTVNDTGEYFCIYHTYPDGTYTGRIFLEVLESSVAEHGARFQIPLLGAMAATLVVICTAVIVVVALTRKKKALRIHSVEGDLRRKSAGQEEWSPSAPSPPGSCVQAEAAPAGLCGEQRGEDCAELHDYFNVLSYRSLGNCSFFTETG
The assay is described as follows: cell-based or functional assay.

Assay [2] addresses T1, human TIGIT expressed on cells. The assay is described as follows: cell-based ELISA, panel 'Binding to human TIGIT-CHO K1 cells'. (ELISA stands for enzyme-linked immunosorbent assay.)
The target of assay [3] is T2, rhesus TIGIT expressed on CHO-K1 cells (rhesus monkey).
T2 construct: also called rhesus TIGIT-CHOK1 cells; Cyno/Rhesus TIGIT
The experiment in a line: cell-based ELISA, panel 'Binding to rhesus TIGIT CHO K1 cells'.

Assay [4] addresses T3, Human TIGIT-His (extracellular domain of hTIGIT with a histidine tag) (human, UniProt Q495A1 25-141).
T3 construct: also called hTIGIT-His; hTIGIT-HIS
T3 sequence: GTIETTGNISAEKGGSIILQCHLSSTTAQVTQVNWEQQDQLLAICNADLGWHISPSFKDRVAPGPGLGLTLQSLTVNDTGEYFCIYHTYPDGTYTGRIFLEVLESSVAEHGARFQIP
The assay is described as follows: SPR, Biacore T200, antibody captured on anti-rat IgG Fc, TIGIT-His in solution, 1:1 Langmuir fit. On the procedure:
(§1) The kinetic binding activity of anti-human TIGIT antibodies 14A6 and 31C6 (made as described in Example 1) and of commercial antibody MBSA43 was measured by surface plasmon resonance using a Biacore T200 system (Biacore, GE Healthcare, Piscataway, N.J.). Approximately 5000 RU of Anti-mouse IgG, GE Healthcare Catalog Number BR-1008-38, or approximately 13,000 RU of Goat Anti-Rat IgG Fc gamma, Fragment Specific, Jackson ImmunoResearch Catalog Number 112-006-071, was immobilized via amine coupling chemistry onto a Series S CM5 sensor chip, catalog number BR-1005-30. Mouse anti-human TIGIT clones, 31C6 and MBSA43, were each injected over the immobilized anti-mouse surfaces at 1 ug/mL for a capture level of 40 RU. Rat anti-human TIGIT clone 14A6 was injected over the immobilized anti-rat surfaces at 1 ug/mL for a capture level of 40 RU. HBS-EP+ buffer (BR-1006-69) was used as the running buffer with a flow rate of 30 μL/min. Varying concentrations of human TIGIT-His protein or TIGIT-Fc protein, ranging from 0.29 nM to 40 nM, at a flow rate of 45 μL/min were injected over the antibody surfaces. Following each Mouse anti-human TIGIT injection cycle for clones 31C6 and MBSA43, the Series S CM5 chip surface was regenerated using one three-minute injection of 10 mM Glycine pH 1.7 at a flow rate of […]. […]
(In general: Surface plasmon resonance follows binding to a sensor surface in real time, without labels.)

The target of assay [5] is T1, human TIGIT expressed on cells. The assay is described as follows: cell-based ELISA, panel 'Binding to human TIGIT-CHO-K1 cells'.
Assay [6] shares this target. The assay is described as follows: cell-based ELISA blocking assay: binding of hCD155-hFc to human TIGIT-CHO-K1 cells, antibody titrated.
The target of assay [7] is T4, human TIGIT-Fc protein (human, UniProt Q495A1 25-141).
T4 construct: not shown: Fc part
T4 sequence: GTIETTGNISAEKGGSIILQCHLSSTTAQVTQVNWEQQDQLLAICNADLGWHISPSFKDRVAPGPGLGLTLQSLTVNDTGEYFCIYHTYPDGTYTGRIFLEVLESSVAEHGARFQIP
The experiment in a line: SPR, Biacore T200, antibody captured on anti-rat IgG Fc, TIGIT-Fc in solution, 1:1 Langmuir fit. On the procedure: as §1

For assay [8], the target named is T2, rhesus TIGIT expressed on CHO-K1 cells. The assay is described as follows: cell-based ELISA, panel 'Binding to rhesus TIGIT-CHOK1 cells'.
Assay [9] addresses T3, Human TIGIT-His (extracellular domain …). The experiment in a line: SPR, Biacore T200, antibody captured on anti-mouse IgG, TIGIT-His in solution, 1:1 Langmuir fit. The method, then: as §1
Assay [10] concerns the target T1, human TIGIT expressed on cells. The experiment in a line: cell-based ELISA blocking assay: binding of hCD155-hFc to human TIGIT-CHO-K1 cells, antibody titrated. The source holds these as a separate data set.
For assay [11], the target named is T4, human TIGIT-Fc protein. The assay is described as follows: SPR, Biacore T200, antibody captured on anti-mouse IgG, TIGIT-Fc in solution, 1:1 Langmuir fit. On the procedure:
as §1

Assay [12] has as its target T1, human TIGIT expressed on cells. The assay is described as follows: cell-based ELISA, panel 'Binding to hTIGIT-CHO'.
Assay [13] concerns the target T2, rhesus TIGIT expressed on CHO-K1 cells. The assay is described as follows: cell-based ELISA, panel 'Binding to rhesus TIGIT-CHO'.
Assay [14] has as its target T1, human TIGIT expressed on cells. The experiment in a line: cell-based or functional assay. This is another data set of the same source.

T2 sequence (chain, as listed by the source): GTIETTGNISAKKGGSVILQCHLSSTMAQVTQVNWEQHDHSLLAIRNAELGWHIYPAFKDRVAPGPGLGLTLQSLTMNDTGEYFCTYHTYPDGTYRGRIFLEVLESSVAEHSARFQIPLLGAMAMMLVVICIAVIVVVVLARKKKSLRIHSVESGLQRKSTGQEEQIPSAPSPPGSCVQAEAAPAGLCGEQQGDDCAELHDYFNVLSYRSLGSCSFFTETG

B1: 28H5 (mouse anti-human TIGIT antibody, clone TC167.28H5.H5) (antibody, mouse IgG1, V domains shown)
VH: DVQLQESGPGLVKPSQSLSLTCTVTGYSITSDYAWNWIRQFPGNKLEWMGYISNSGSASYNPSLKSRISITRDTSKNQFFLQLNSVTTEDTATYYCATLIYYDYGGAMNFWGQGTSVTVSS
VL: DIVMTQSHKFMSTSVGDRVSITCKASQGVSTTVAWYQQKPGQSPKLLIYSASYRYTGVPDRFTGSGSGTDFTFTISSVQSEDLAVYYCQHYYSTPWTFGGGTKLEIK
notes: Mouse IgG1/kappa
As to B1, in [1], the “EC50 of IL-2 rescue in hTIGIT-Jurkat / THP-1 co-culture” value stood at 0.24 µg/mL. In assay [1], the “increase in IFNγ production, BC4-clone 49 T cells with JY-hCD155 cells” value (shortened to “increase in IFNγ production”) is around 2 fold. Also, the concentration giving a half-maximal response (EC50 (read off the curve)) (commonly the midpoint of the concentration-response curve) was around 100 µg/mL in [2] and around 0.05 µg/mL in assay [3].

B2: 14A6 (rat anti-human TIGIT antibody, clone LB155.14A6.G2.A8) (antibody, V domains shown)
VH: EVQLQESGPGLVKPSQSLSLTCSVTGSSIASDYWGWIRKFPGNKMEWMGFITYSGSTSYNPSLKSRISITRDTSKNQFFLQLHSVTTDDTATYSCARMPSFITLASLSTWEGYFDFWGPGTMVTVSS
VL: DIQMTQSPSLLSASVGDRVTLNCKASQSIHKNLAWYQQKLGEAPKFLIYYANSLQTGIPSRFSGSGSGTDFTLTISGLQPEDVATYFCQQYYSGWTFGGGTKVELK
notes: also called 14A6 (rIgG2a/K)
Take B2: in assay [1], the “EC50 of IL-2 rescue in hTIGIT-Jurkat / THP-1 co-culture” value came to 0.19 µg/mL; the “IL-2 rescue relative to MBSA43 (10 µg/ml)” value came to 82%; the “increase in IFNγ production” value was around 2 fold. For the same molecule, binding in assay [4] was characterised by a dissociation constant (Kd) of 3.09 pM. For the same molecule, the concentration for a half-maximal effect (EC50 (read off the curve)) in [5] is around 0.1 µg/mL. In assay [6], the “IC50 (read off the curve)” value was around 0.1 µg/mL. The Kd – broadly, the equilibrium constant for the complex coming apart – with human TIGIT-Fc protein [7] came to 3.12 pM. In addition, the “EC50 (read off the curve)” value in [8] is around 0.2 µg/mL.

B3: 31C6 (mouse anti-human TIGIT antibody, clone MEB125.31C6.A1.205) (antibody, mouse IgG1, V domains shown)
VH: EVQLQQSGPELVKPGSSVKMSCKASGYTFSSYVMHWVKQKPGQGLEWIGYIDPYNDGAKYNEKFKGKATLTSDKSSSTAYMELSSLTSEDSAVYYCARGGPYGWYFDVWGAGTTVTVSS
VL: DIQMTQSPASLSASVGETVTITCRASEHIYSYLSWYQQKQGKSPQLLVYNAKTLAEGVPSRFSGSGSGTQFSLKINSLQPEDFGTYYCQHHFGSPLTFGAGTTLELK
notes: Mouse IgG1/kappa; also called 31C6 (mIgG1/K); MEB125.31C6.A1.205 mIgG1
As to B3, in [1], the “EC50 of IL-2 rescue in hTIGIT-Jurkat / THP-1 co-culture” value worked out at 0.14 µg/mL; the “EC50 of IL-2 rescue in hTIGIT-Jurkat / hCD155-JY co-culture” value amounted to 0.73 µg/mL; the “IL-2 rescue relative to MBSA43 (10 µg/ml)” value amounted to 118%; the “increase in IFNγ production” value is around 2 fold. In addition, binding in assay [9] was characterised by a dissociation constant (Kd) of 34.4 pM. Also, the “IC50 (read off the curve)” value in assay [10] is around 0.9 µg/mL. In the assay with human TIGIT-Fc protein [11], this molecule yielded an equilibrium dissociation constant (Kd) of 10.9 pM. For the same molecule, the “EC50 (read off the curve)” value in [12] is around 0.03 µg/mL. Also, in [13], the “EC50 (read off the curve)” value was around 0.06 µg/mL.

B4: Mouse human chimera MEB125.31C6.A1.205 IgG1 (antibody, V domains shown)
VH: EVQLQQSGPELVKPGSSVKMSCKASGYTFSSYVMHWVKQKPGQGLEWIGYIDPYNDGAKYNEKFKGKATLTSDKSSSTAYMELSSLTSEDSAVYYCARGGPYGWYFDVWGAGTTVTVSS
VL: DIQMTQSPASLSASVGETVTITCRASEHIYSYLSWYQQKQGKSPQLLVYNAKTLAEGVPSRFSGSGSGTQFSLKINSLQPEDFGTYYCQHHFGSPLTFGAGTTLELK
Turning to B4, the “EC50 of IL-2 rescue in hTIGIT-Jurkat / hCD155-JY co-culture” value in assay [1] came to 0.91 µg/mL.

B5: MEB125.31C6.A1.205 VH4/VL1 (antibody, human IgG1, V domains shown)
VH: EVQLVQSGAEVKKPGASVKVSCKASGYTFSSYVMHWVRQAPGQGLEWIGYIDPYNDGAKYAQKFQGRVTLTSDKSTSTVYMELSSLRSEDTAVYYCARGGPYGWYFDVWGQGTTVTVSS
VL: DIQMTQSPSSLSASVGDRVTITCRASEHIYSYLSWYQQKPGKAPKLLIYNAKTLAEGVPSRFSGSGSGTDFTLTISSLQPEDFATYYCQHHFGSPLTFGQGTRLEIK
Turning to B5, the “EC50 of IL-2 rescue in hTIGIT-Jurkat / hCD155-JY co-culture” value in assay [14] amounted to 0.62 µg/mL.

B6: MEB125.31C6.A1.205 VH5/VL4 (antibody, human IgG1, V domains shown)
VH: EVQLVQSGAEVKKPGSSVKVSCKASGYTFSSYVMHWVRQAPGQGLEWIGYIDPYNDGAKYAQKFQGRVTLTSDKSTSTAYMELSSLRSEDTAVYYCARGGPYGWYFDVWGQGTTVTVSS
VL: DIQMTQSPSSLSASVGDRVTITCRASEHIYSYLSWYQQKPGKVPKLLIYNAKTLAEGVPSRFSGSGSGTQFTLTISSLQPEDVATYYCQHHFGSPLTFGQGTRLEIK
For B6, the “EC50 of IL-2 rescue in hTIGIT-Jurkat / hCD155-JY co-culture” value in [14] was found to be 1.2 µg/mL.

B7: MEB125.31C6.A1.205 VH5/VL3 (antibody, human IgG1, V domains shown)
VH: EVQLVQSGAEVKKPGSSVKVSCKASGYTFSSYVMHWVRQAPGQGLEWIGYIDPYNDGAKYAQKFQGRVTLTSDKSTSTAYMELSSLRSEDTAVYYCARGGPYGWYFDVWGQGTTVTVSS
VL: DIQMTQSPSSLSASVGDRVTITCRASEHIYSYLSWYQQKPGKVPKLLIYNAKTLAEGVPSRFSGSGSGTDFTLTISSLQPEDVATYYCQHHFGSPLTFGQGTRLEIK
Consider B7, for which the “EC50 of IL-2 rescue in hTIGIT-Jurkat / hCD155-JY co-culture” value in assay [14] amounted to 1.2 µg/mL.
